Residue numbers refer to the chain shown, from its start. Numbers in names are those of the source. Where “and” joins values, the source holds several entries; their conditions need not be identical. Identical values can stand only once. Like-named read-outs stand apart in the source and are kept apart here. Blank lines part the entries; values can stand above or below the molecule they belong to.
Legend:
[1] = target: taxol-stabilized microtubules; experiment: Microtubule cosedimentation assay, untreated microtubules; assay type: binding; settings: for Kd: 50 nM, modified Hill equation, at least three independent experiments, read-out: apparent Kd for microtubules
Procedure: (§1) Full-length MCAK complex was diluted in S buffer (50 mM NaCl, 20 mM Hepes pH 7.0) to 50 nM, in absence of nucleotide to prevent MCAK-dependent microtubule depolymerisation. To assemble an MCAK motor-CT domain complex, 50 nM of the motor domain and 100 nM of the CT domain were used. Microtubule binding assays were performed as described ([Cheeseman et al., 2006]) using equal volumes of taxol-stabilized microtubules in BRB80 and MCAK in S buffer. MCAK was quantified using anti-MCAK antibody against the C terminus of MCAK (709[…]720), generated by GL Biochem (Shangai) Ltd (China) or anti-His antibody to probe for the motor domain alone (GE Healthcare Lifesciences, UK). The data from at least three independent experiments were fitted to a modified Hill equation to determine the apparent Kd.

[2] = system: subtilisin-treated microtubules; experiment: Microtubule cosedimentation assay, subtilisin-treated microtubules; assay type: binding; settings: for affinity for subtilisin-treated microtubules (β-tubulin C termini removed): 50 nM full-length protein, subtilisin 10 min
Procedure: as §1
Tubulin (5 mg/ml) was first polymerized into MTs in the presence of 1 mM GTP and gradual addition of 0.05 µM, 0.5 µM and 2 µM taxol for 1 hr at 37°C. The polymerized MTs were then treated with 100 μg/ml subtilisin and incubated at 37°C for 10 min to cleave β-tubulin tails and 120 min to cleave both α- and β-tubulin tails. Each reaction was then terminated with the addition of 3 mM PMSF. DM1A (Abcam, UK) and c-terminal β-tubulin (Sigma, UK) were used to detect the α- and β-tails, respectively by western blotting. The subtilisin treated microtubules were then pelleted at 28°C in a TLA100 rotor at 80,000 rpm for 10 min and the microtubule pellets were resuspended in warm BRB80 buffer to obtain subtilisin treated microtubules. The cosedimentation assays were then performed as described before.

[3] = system: taxol-stabilized microtubules; experiment: Microtubule depolymerisation assay; assay type: biochemical
Procedure: Microtubule depolymerization assays were performed essentially as described previously ([Hertzer et al., 2006]). MCAK was diluted to 100 nM in S-buffer containing 1 mM DTT and 2 mM Mg-ATP. For depolymerization assays of the motor domain in presence of the CT domain after GST cleavage and removal, 50 nM of motor domain and 100 nM of the CT domain were used. The microtubule depolymerization assay was initiated by the addition of 2 μM taxol-stabilized microtubules to a reaction buffer containing MCAK. Reactions were incubated at room temperature with increasing times and followed by centrifugation to separate microtubules from free tubulin. The data are represented as mean ± SD from three independent experiments.

[4] = Analytical size-exclusion chromatography (oligomeric state / size); assay type: physicochemical
Procedure: Protein expression was induced by addition of 0.5 mM IPTG to BL21(DE3) Codon plus cells transformed with respective constructs at OD600 of 0.7–0.8 for 16 hr at 18°C. Cells were lysed by sonication in lysis buffer (50 mM Hepes, pH 7.4, 200 mM NaCl, 1 mM MgCl2, 1 mM PMSF, 1 mg/ml DNaseI, 2 mg/ml lysozyme, 10 mM Imidazole) and clarified at 20,000 rpm for 1 hr at 4°C. His-tagged and GST-tagged proteins were subsequently purified using Ni-NTA–agarose beads and glutathione-sepharose beads, respectively (GE Healthcare Life Sciences, UK)) according to the manufacturer's guidelines. MCAK constructs containing the motor domain were eluted with elution buffer (50 mM Hepes, pH 7.4, 200 mM NaCl, 1 mM MgCl2, 1 mM ATP, and 300 mM imidazole). Cleavage of the GST tag was performed using the GST-3C protease overnight at 4°C. […] Protein concentrations were determined with a combination of Bradford protein assays and densitometry of Coomassie-stained gels relative to a BSA standard. […]

[5] = Size-exclusion chromatography coupled to multi-angle light scattering (SEC-MALS); assay type: physicochemical; settings: 100 mM HEPES pH 7.2, 150 mM NaCl
Procedure: Size-exclusion chromatography with on-line multi-angle light scattering (SEC-MALS) was performed using a GE Superdex 200 10/300 GL column on an ÄKTA FPLC system. MALS measurements were performed using a MiniDAWN in-line detector (Wyatt Technology, Santa Barbara, CA, USA). MCAK motor domain and C terminus were at 2 mg/ml in 100 mM HEPES, pH 7.2, 150 mM NaCl. Protein concentration was monitored using a UV monitor at 280 nm and a refractive index detector was set at 690 nm (Optilab DSP, Wyatt Technology, Santa Barbara, CA, USA). Data were analyzed using Astra software (Wyatt Technology, Santa Barbara, CA, USA) using the refractive index detector and a refractive index increment (dn/dc) value of 0.185 ml/g. Gel phase distribution coefficients (Kav) were determined from the equation Kav = (Ve − Vo)/(Vt − Vo), where Ve, Vo, and Vt represent the elution volume of the protein of interest, the column void volume and the total bed volume of the column, respectively.

[6] = full-length protein, absence of nucleotide, untreated microtubules

Kd [1, 6]: ~200 nM and 200 nM
B1: MCAKS715E: full-length MCAK S715E in which the CT domain cannot bind to the motor domains (protein)
chain: MAMDSSLQARLFPGLAIKIQRSNGLIHSANVRTVNLEKSCVSVEWAEGGATKGKEIDFDDVAAINPELLQLLPLHPKDNLPLQENVTIQKQKRRSVNSKIPAPKESLRSRSTRMSTVSELRITAQENDMEVELPAAANSRKQFSVPPAPTRPSCPAVAEIPLRMVSEEMEEQVHSIRGSSSANPVNSVRRKSCLVKEVEKMKNKREEKKAQNSEMRMKRAQEYDSSFPNWEFARMIKEFRATLECHPLTMTDPIEEHRICVCVRKRPLNKQELAKKEIDVISIPSKCLLLVHEPKLKVDLTKYLENQAFCFDFAFDETASNEVVYRFTARPLVQTIFEGGKATCFAYGQTGSGKTHTMGGDLSGKAQNASKGIYAMASRDVFLLKNQPCYRKLGLEVYVTFFEIYNGKLFDLLNKKAKLRVLEDGKQQVQVVGLQEHLVNSADDVIKMIDMGSACRTSGQTFANSNSSRSHACFQIILRAKGRMHGKFSLVDLAGNERGADTSSADRQTRMEGAEINKSLLALKECIRALGQNKAHTPFRESKLTQVLRDSFIGENSRTCMIATISPGISSCEYTLNTLRYADRVKELSPHSGPSGEQLIQMETEEMEACSNGALIPGNLSKEEEELSSQMSSFNEAMTQIRELEEKAMEELKEIIQQGPDWLELSEMTEQPDYDLETFVNKAESALAQQAKHFSALRDVIKALRLAMQLEEQAERQISSKKRPQ
modifications: left off: His tag, end not stated, state not stated
affinity for subtilisin-treated microtubules (β-tubulin C termini removed) ([2]; absence of nucleotide): remained comparably high | microtubule depolymerase activity, full-length ([3]; 100 nM protein, 2 μM microtubules, 1 mM DTT, 2 mM Mg-ATP, room temperature, three experiments): appeared similar to wild type MCAK

Kd [1, 6]: ~1500 nM and 1500 nM
B2: MCAK: full-length wild type MCAK, kinesin-13 microtubule depolymerase (protein)
chain: B1 chain with E715S
modifications: left off: His tag, end not stated, state not stated
notes: full-length wild type MCAK, kinesin-13 microtubule depolymerase
affinity for subtilisin-treated microtubules (β-tubulin C termini removed) ([2]; absence of nucleotide): increased the affinity

The next lines start with the molecule.

B3: MCAKE712C: full-length MCAK with Glu712 mutated to cysteine (protein)
chain: B1 chain with E712C, E715S
modifications: left off: His tag, end not stated, state not stated
notes: full-length MCAK with Glu712 mutated to cysteine
gel filtration profile [4]: eluted as one complex, of similar size to MCAK | microtubule binding, absence of DTT (oxidizing) ([1]; full-length protein 50 nM, absence of DTT and nucleotide): the affinity of MCAKE712C for microtubules was reduced and a fraction of MCAKE712C did not bind microtubules, even at saturating microtubule concentrations | microtubule binding, presence of DTT ([1]; full-length protein 50 nM, with DTT, absence of nucleotide): bound to microtubules similarly to wild type full-length MCAK

B4: motor domain: motor region of MCAK along with the neck linker region (residues 181–583), His-tagged (protein, UniProt Q99661 181-583, looked up, fragment)
chain: SANPVNSVRRKSCLVKEVEKMKNKREEKKAQNSEMRMKRAQEYDSSFPNWEFARMIKEFRATLECHPLTMTDPIEEHRICVCVRKRPLNKQELAKKEIDVISIPSKCLLLVHEPKLKVDLTKYLENQAFCFDFAFDETASNEVVYRFTARPLVQTIFEGGKATCFAYGQTGSGKTHTMGGDLSGKAQNASKGIYAMASRDVFLLKNQPCYRKLGLEVYVTFFEIYNGKLFDLLNKKAKLRVLEDGKQQVQVVGLQEHLVNSADDVIKMIDMGSACRTSGQTFANSNSSRSHACFQIILRAKGRMHGKFSLVDLAGNERGADTSSADRQTRMEGAEINKSLLALKECIRALGQNKAHTPFRESKLTQVLRDSFIGENSRTCMIATISPGISSCEYTLNTLRYAD
modifications: His tag
notes: motor region of MCAK along with the neck linker region (residues 181–583), His-tagged
apparent size (gel filtration) [4]: ~45 kDa | fraction monomeric ([5]; SEC-MALS, absence of CT domain, 2 mg/ml): over 90% | Monodispersity ([5]; SEC-MALS): 1.005 | measured molecular weight (MW) ([5]; SEC-MALS, Superdex 200 10/300 GL, 2 mg/ml, unit printed kDa in text, kD in figure): ~45.3 kDa | Stoke Radius ([5]; from SEC calibration curve): 3.11 nm | Kd ([1]; motor domain alone, absence of nucleotide): 640 nM | Kd ([2]; 50 nM motor domain in motor-CT domain complex, subtilisin-treated microtubules (10 or 120 min), absence of nucleotide): 200 nM | effect of α-tubulin tail removal on affinity for microtubules lacking β-tubulin tail ([2]; 50 nM motor domain, subtilisin 120 vs 10 min): did not further modify the affinity | microtubule depolymerase activity of motor with CT domain, with and without DTT ([3]; 50 nM motor domain, 100 nM CT domain, 2 μM taxol-stabilized microtubules): could depolymerize microtubules

B5: CTE712C-bound motor: motor domain covalently bound (disulphide) to CTE712C domain (protein)
chain 1: NPVNSVRRKSCLVKEVEKMKNKREEKKAQNSEMRMKRAQEYDSSFPNWEFARMIKEFRATLECHPLTMTDPIEEHRICVCVRKRPLNKQELAKKEIDVISIPSKCLLLVHEPKLKVDLTKYLENQAFCFDFAFDETASNEVVYRFTARPLVQTIFEGGKATCFAYGQTGSGKTHTMGGDLSGKAQNASKGIYAMASRDVFLLKNQPCYRKLGLEVYVTFFEIYNGKLFDLLNKKAKLRVLEDGKQQVQVVGLQEHLVNSADDVIKMIDMGSACRTSGQTFANSNSSRSHACFQIILRAKGRMHGKFSLVDLAGNERGADTSSADRQTRMEGAEINKSLLALKECIRALGQNKAHTPFRESKLTQVLRDSFIGENSRTCMIATISPGISSCEYTLNTLRYAD
chain 2: VIKALRLAMQLECQASRQISSKKRPQ
modifications: disulphide bridge of Cysteine 287 to Cysteine 712 of the CT_(E712C) domain | disulphide bridge of Cysteine 712 to Cysteine 287 of the motor domain; left off: His tag, end not stated, kept | GST, end n
detection of CT domain in microtubule-bound pellet / supernatant ([1]; western blot, 50 nM motor domain, with and without DTT): remained in the supernatant
